Laboratory results reported in article PMC5171940.

Biological target: biotinylated Aβ immobilised for the SPR of CreneFab alanine mutants
Test: SPR; BIAcore T200, single-cycle kinetics; biotinylated Aβ (11–28 or oligomeric 1–42) captured on streptavidin-coupled CM5 chip (100–200 RU); antibody as analyte 0.8–500 nM in HBS-P pH 7.4, 0.15 M NaCl; one-to-one Langmuir model

B1: CreneFab Ser52a alanine mutant (Fab, V domains shown)
VH: EVQLVESGGGLVQPGGSLRLSCAASGFTFSSYGMSWVRQAPGKGLELVASINANGGSTYYPDSVKGRFTISRDNAKNSLYLQMNSLRAEDTAVYYCASGDYWGQGTLVTVSS
VL: DIVMTQSPLSLPVTPGEPASISCRSSQSLVYSNGDTYLHWYLQKPGQSPQLLIYKVSNRFSGVPDRFSGSGSGTDFTLKISRVEAEDVGVYYCSQSTHVPWTFGQGTKVEIK
fold reduction of affinity against wild-type CreneFab: 1.8 fold

B2: CreneFab with deletion of Glu1^HC and Val2^HC (Fab, V domains shown)
VH: QLVESGGGLVQPGGSLRLSCAASGFTFSSYGMSWVRQAPGKGLELVASINSNGGSTYYPDSVKGRFTISRDNAKNSLYLQMNSLRAEDTAVYYCASGDYWGQGTLVTVSS
VL: DIVMTQSPLSLPVTPGEPASISCRSSQSLVYSNGDTYLHWYLQKPGQSPQLLIYKVSNRFSGVPDRFSGSGSGTDFTLKISRVEAEDVGVYYCSQSTHVPWTFGQGTKVEIK
fold reduction of affinity against wild-type CreneFab: 2.6 fold
